Reference: patent publication US10456465B2, “Compositions, kits, and methods for the diagnosis prognosis, monitoring, treatment and modulation of post-transplant lymphoproliferative disorders and hypoxia associated angiogenesis disorders using galectin-1” (Dana-Farber Cancer Institute, Inc., priority 2009, dated 2019)
Entries after “also recorded” stand apart in the source; their conditions may differ.

B1: anti-Gal1 monoclonal antibody 8F4F8G7 (antibody, V domains shown)
VH: EVQLQQSVAEFVRPGASVRLSCTASGFNIKNTYIHWVRQRPEQGLEWIGKIDPANGNTKYVPEFQGKATMTADTSSNTVYLHLSSLTSEDTAIYYCVDGYYGWYFAVWGTGTTVTVSS
VL: QAVVTQESALTTSPGETVTLTCRSSTGAVTTSNYANWVQEKPDHLFTGLIGATNNRAPGVPARFSGSLIGDKAVLTITGAQTEDEAIYFCALWYRNHFIFGSGTKVTVL
notes: Murine hybridoma mAb (deposit PTA-10535), lambda light chain; also called 14-19 8F4-F8-G7; clone 8F4.8F.67

Key:
HUVEC = experiment: ELISA of VEGF secretion by HUVEC; format: cell-based, human; conditions: HUVEC incubated with Gal1
Method: Mouse IFN-γ and IL-10 ELISA sets were from BD Biosciences and mouse IL-17 kit was from R&D. Human soluble VEGF was assessed by ELISA (DY293B; R&D). Soluble Gal1 was determined using an in-house ELISA. Briefly, high binding 96-well microplates (Corning Costar) were coated with capture antibody (2 μg/ml purified rabbit anti-Gal1 polyclonal IgG) in 0.1 M sodium carbonate pH 9.5. After incubation for 18 hours at 4° C., wells were rinsed three times with wash buffer (0.05% Tween-20 in PBS) and incubated for 1 h at RT with blocking solution (2% BSA in PBS). Samples and standards (100 μl) were diluted in 1% BSA and incubated for 18 hours at 4° C. Plates were then washed and incubated with 100 ng/ml biotinylated detection antibody (purified rabbit anti-Gal1 polyclonal IgG) for 1 hour at RT. Plates were rinsed three times before adding horseradish peroxidase-labeled streptavidin (0.33 μg/ml; Sigma) for 30 min at RT. After washing, 100 μl of TMB solution (0.1 mg/ml tetramethylbenzidine and 0.06% H2O2 in citrate-phosphate buffer pH 5) was added to the plates. The reaction was stopped by adding 4N H2SO4. Optical densities were determined at 450 nm in a Multiskan MS microplate reader (Thermo Electron Corporation). A standard curve ranging from 2.5 to 160 ng/ml recombinant Gal1 was run in parallel.

[1] = test system: growth factor receptor tyrosine kinases (RTKs) and signaling nodes; experiment: Phospho-RTK signaling array of HUVEC; format: cell-based, human; conditions: HUVEC exposed to Gal1
Method: Cells were lysed and analyzed by the human PathScan® RTK Signaling Antibody
(§1) Array (Cell Signaling) following manufacturer's directions. For co-immunoprecipitation, 500 μg cell lysates were incubated with 2 μg of anti-VEGFR2 (55B11; Cell Signaling) or anti-NRP-1 (C-19; Santa Cruz Biotechnol) antibodies. The immunocomplexes were captured with protein G PLUS-Agarose (Santa Cruz Biotechnol) and processed for immunoblot analysis as described in Ilarregui et al. (2009) Nat Immunol 10, 981-991. Equal amounts of protein were resolved by SDS-PAGE, blotted onto nitrocellulose membranes (GE Healthcare) and probed with anti-IκB-α (C21), anti-Erk1/2 (C14), anti-phospho-Erk1/2 (E4) or anti-actin (I-19) (all from Santa Cruz Biotechnol) or anti-Akt (9272), anti-phospho-Akt (9271S), anti-VEGFR2 (55B11), anti-phospho-VEGFR2 (19A10) (all from Cell Signaling) or anti-HIF-1α (mgc3; ABR BioReagent) antibodies or a rabbit anti-Gal1 IgG (1.5 μg/ml) obtained as described in Ilarregui et al. (2009) Nat Immunol 10, 981-991.

[2] = test system: EBV-specific CD8+ T cells; experiment: rGal1-induced killing of EBV-specific CTLs; format: cell-based, human; conditions: rGal1 alone, 1.25, 2.5 or 5 μM; 4 h; 7AAD
Method: (§2) After informed consent, 40-60 ml of peripheral blood from healthy donors was used to generate both EBV-transformed LCLs and EBV-specific CTLs (Straathof et al. (2005) Blood 105:1898-904). In brief, 5×10^6 peripheral blood mononuclear cells (PBMCs) were incubated with concentrated culture supernatant from the marmoset B-lymphoblastoid cell line, B95-8, in the presence of 1 μg/ml cyclosporin A (Sandoz, Vienna, Austria) to establish a LCL. Subsequently, PBMCs (2×10^6 per well of a 24-well plate) were stimulated with irradiated LCLs (at 4,000 rads) at an effector-stimulator (E/S) ratio of 40:1. After 10 days, viable cells were restimulated with irradiated LCLs (at 4:1 E/S ratio). CTLs were expanded by weekly stimulations with autologous irradiated LCLs (at 4:1 E/S ratio) in the presence of recombinant human interleukin-2 (rhIL-2, Proleukin; Chiron Emeryville, Calif.) at concentration of 40 U/ml. After 5 cycles of stimulation, CTLs were tested for EBV specificity and cryopreserved. […]
(§3) CTLs were thawed in AIM-V media (Invitrogen) containing 10 U/ml of DNAse I (Roche Applied Science, Indianapolis, Ind.) and rested in culture overnight. […] After 4 hours, the viability of EBV-specific CD8^+ T cells was measured using 7AAD and APC-Cy7-labelled CD8 (BD Biosciences, San Jose, Calif.).

human galectin-1 (Gal1) = target: T1, human galectin-1 (Gal1) (human, UniProt P09382 2-135); experiment: immunoblot of L428 cell lysate
T1 construct: Used as recombinant protein (rGal1); also called hGal1; rGal1

B16 tumors = experiment: Adoptive transfer of CFSE-labeled T cells or fluorescent beads into B16 tumor-bearing mice; format: in vivo, mouse
Method: Wild-type KS cells or shRNA clones (5×10^6 cells) were injected subcutaneously into 6- to 8-week old nude mice. Wild-type B16 cells or shRNA clones (2×10^5 cells) were injected into 6- to 8-week old B6 or B6/Rag^−/− mice and tumor development was monitored as described in Rubinstein et al. (2004) Cancer Cell 5, 241-251. Treatments with 8F4F8G7 mAb or control isotype (2.5, 7.5 or 15 mg/kg; i.p. injections every three days) were initiated when tumors reached 100 mm^3. Mice were sacrificed when tumors reached a volume greater than 2 cm^3. At 2 weeks after tumor challenge, lymph node cells (5×10^5 cells/well) were restimulated for 72 h with 1×10^4 irradiated (4,000 rads) B16 cells and were analyzed for proliferation and cytokine production. For adoptive transfer, splenic T cells (5×10^6) from tumor-bearing mice were labeled with CFSE (Molecular Probes) and injected through the tail vein into tumor-bearing recipient mice treated with 8F4F8G7 or control mAb. In related studies, fluorescent beads (3 μm; BD Biosciences), rather than splenic T cells, were injected into tumor-bearing animals treated with 8F4F8G7 or control antibody. CFSE^+ cells or PerCP-labeled beads were analyzed after 24 h or 15 min respectively by flow cytometry in tumor parenchyma and spleen.

VEGFR2 = experiment: Immunoblot of VEGFR2 phosphorylation in HUVEC; format: cell-based, human
Method: as §1

rGal1 = rGal1 (Homo sapiens, UniProt P09382); experiment: Anti-Gal1 mAb neutralization of rGal1-induced killing of EBV-specific CTLs; format: cell-based; conditions: rGal1 1.25, 2.5 or 5 μM pre-incubated with mAb; 4 h; 7AAD
Method: as §2, §3

Chain of rGal1 (P09382 whole entry): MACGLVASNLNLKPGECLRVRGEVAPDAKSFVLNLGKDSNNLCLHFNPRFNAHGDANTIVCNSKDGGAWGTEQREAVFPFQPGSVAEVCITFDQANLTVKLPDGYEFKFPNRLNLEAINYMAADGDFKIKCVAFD
T1 sequence (P09382 2-135 limits assumed): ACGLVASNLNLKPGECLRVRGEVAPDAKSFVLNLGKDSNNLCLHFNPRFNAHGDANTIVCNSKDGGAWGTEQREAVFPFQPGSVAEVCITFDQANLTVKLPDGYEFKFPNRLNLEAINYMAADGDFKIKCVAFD

| Molecule | VEGF secretion (HUVEC) | phosphorylation of Akt (Thr308), Akt (Ser473) and Erk1/2 [1] | phosphorylation of VEGFR2 ([1]; as early as 15 min) | apoptosis of EBV-specific CD8+ T cells [2] | binding result (human galectin-1 (Gal1)) | T cells reaching tumor parenchyma (increase) (B16 tumors; CFSE-labeled T cells, vs control isotype) [fold] | number of CFSE+ T cells in spleens (B16 tumors; recipient mice) | access of fluorescently-labeled beads to the tumor parenchyma (B16 tumors; vs isotype-treated mice, 15 min) | VEGFR2 phosphorylation in response to Gal1 (VEGFR2) | rGal1-mediated apoptosis of EBV-specific CD8+ T cells (rGal1) |
| --- | --- | --- | --- | --- | --- | --- | --- | --- | --- | --- |
| rGal1: recombinant human galectin-1 | lack of effects | increased | became phosphorylated | induced massive apoptosis | – | – | – | – | – | – |
| B1 | – | – | – | – | binds | 3 | no differences | increased access | specifically inhibited | almost completely abrogated; also recorded: dramatically reduced |
